Measurements: paper PMC5228031, “CDK4/6-dependent activation of DUB3 regulates cancer metastasis through SNAIL1” (Nature Communications, 2017)

Biological target: T1, His-DUB3 (UniProt Q6R6M4 1-530)
T1 construct: cloned into PET28A; source: purified recombinant
T1 sequence (looked up): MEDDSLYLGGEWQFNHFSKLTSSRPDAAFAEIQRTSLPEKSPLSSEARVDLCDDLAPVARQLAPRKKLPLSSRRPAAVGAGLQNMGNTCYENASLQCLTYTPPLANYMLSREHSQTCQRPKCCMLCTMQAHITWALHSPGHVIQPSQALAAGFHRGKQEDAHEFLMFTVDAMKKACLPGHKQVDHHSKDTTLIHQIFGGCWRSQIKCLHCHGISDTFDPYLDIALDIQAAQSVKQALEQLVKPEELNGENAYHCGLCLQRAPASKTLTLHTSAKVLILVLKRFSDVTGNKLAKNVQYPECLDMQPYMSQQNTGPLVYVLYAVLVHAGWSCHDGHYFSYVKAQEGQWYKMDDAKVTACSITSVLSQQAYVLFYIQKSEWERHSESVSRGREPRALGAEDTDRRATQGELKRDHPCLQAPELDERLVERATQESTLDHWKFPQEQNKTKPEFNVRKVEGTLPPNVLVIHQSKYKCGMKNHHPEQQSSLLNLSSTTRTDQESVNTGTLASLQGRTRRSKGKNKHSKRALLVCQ
Test: pull-down; purified recombinant GST or GST fusion protein and His-tagged protein incubated in vitro
Settings: both partners purified

binding result: binds
B1: GST-CDK4 (enzyme, UniProt P11802 1-303, looked up)
chain: MATSRYEPVAEIGVGAYGTVYKARDPHSGHFVALKSVRVPNGGGGGGGLPISTVREVALLRRLEAFEHPNVVRLMDVCATSRTDREIKVTLVFEHVDQDLRTYLDKAPPPGLPAETIKDLMRQFLRGLDFLHANCIVHRDLKPENILVTSGGTVKLADFGLARIYSYQMALTPVVVTLWYRAPEVLLQSTYATPVDMWSVGCIFAEMFRRKPLFCGNSEADQLGKIFDLIGLPPEDDWPRDVSLPRGAFPPRGPRPVQSVVPEMEESGAQLLLEMLTFNPHKRISAFRALQHSYLHKDEGNPE
notes: also called CDK4/6; source: purified recombinant
